In doi:10.1101/2025.07.03.662971:

Tests used:
[1] = molecular target: FITC labeled GKAP C-terminus peptide (CT12) (human); assay: fluorescence polarisation
[2] = molecular target: 6xHis-tagged GH1 or CT43 protein (ligand of the Ni-NTA BLI) (rat) (UniProt P97836); assay: BLI
[3] = molecular target: GST-tagged 12 amino acid ATG13 peptide (human); assay: BLI
[4] = molecular target: GST-tagged 12 amino acid mTOR peptide (human); assay: BLI
[5] = molecular target: GST-tagged 12 amino acid βPIX peptide (human); assay: BLI
[6] = molecular target: GST-tagged 12 amino acid ARAP3 peptide (human); assay: BLI

Chain of 6xHis-tagged GH1 or CT43 protein (ligand of the Ni-NTA BLI) (rat) (P97836 807-992): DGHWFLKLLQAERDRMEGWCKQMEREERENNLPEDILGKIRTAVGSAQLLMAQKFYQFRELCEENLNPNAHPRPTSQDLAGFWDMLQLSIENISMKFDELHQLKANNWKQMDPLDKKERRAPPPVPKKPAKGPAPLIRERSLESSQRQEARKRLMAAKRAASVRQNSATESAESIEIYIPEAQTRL

| Substance | Kd [1] [µM] | Kd [2] [µM] | also measured |
| --- | --- | --- | --- |
| Shank1-PDZ G734S variant (domain or fragment) | 10.6 |  |  |
| Shank1-PDZ R679W variant (domain or fragment) | 325 | 14.5 |  |
| Shank1-PDZ R743H variant (domain or fragment) | 7.62 |  |  |
| Shank1-PDZ V677M variant (domain or fragment) | 16.9 |  |  |

Substances with a lower Kd [1], results first:

| Kd [1] [µM] | Kd [2] [µM] | Substance | also measured |
| --- | --- | --- | --- |
| 4.59 | 1.5 | wild type Shank1-PDZ domain (domain or fragment) | Kd [3]: 39.1 µM; Kd [4]: 720 µM; Kd [5]: 23.2 µM; Kd [6]: 35.8 µM |
| 2.55 |  | Shank1-PDZ R736Q variant (domain or fragment) |  |
